Laboratory results: PMC11655644, “Cardiocutaneous syndrome is caused by aggregation of iASPP mutants” (Cell Death Discovery, 2024)

T1: iASPP CTD WT (C-terminal domain, AA625-828) (human, UniProt Q8WUF5 625-828)
T1 construct: iASPP (encoded by PPP1R13L), C-terminal domain with four ankyrin repeats and an SH3 domain, AA625-828 (CTD starting from L625); also called iASPP WT CTD; source: E. coli BL21(DE3) Rosetta, purified (IMAC, TEV cleavage, reverse Ni, HiTrap Q, Superdex 75 SEC); not shown: His10, N-terminal, cleaved
T1 sequence (looked up): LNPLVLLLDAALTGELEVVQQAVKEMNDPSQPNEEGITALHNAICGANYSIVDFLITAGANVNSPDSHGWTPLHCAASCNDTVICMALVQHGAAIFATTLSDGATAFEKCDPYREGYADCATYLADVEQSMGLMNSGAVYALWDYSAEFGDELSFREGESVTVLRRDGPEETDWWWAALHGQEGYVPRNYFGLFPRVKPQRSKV


Tests used:
[1] = molecular target: iASPP CTD WT (C-terminal domain, AA625-828) (human) (UniProt Q8WUF5); experiment: ITC; VP-ITC, 12 °C, 25 steps of 10 µl; 450 µM iASPP CT peptides titrated to 30 µM purified ASPP CTDs; 25 mM HEPES pH 7.5, 150 mM NaCl, 500 µM TCEP
[2] = molecular target: iASPP CTD N813A Y814A double mutant (human) (UniProt Q8WUF5); experiment: as above
[3] = molecular target: T1, iASPP CTD WT (C-terminal domain, …); experiment: thermal shift assay; 20 µM CTD with SYPRO Orange and 20 or 40 µM PP1α (AA311-330) peptide in assay buffer; 4 to 99 °C at 0.1 °C/s; conditions: both partners purified

Row | Kd [1] | Kd [2] | Molecule | increase of the melting temperature with peptide [3]
1 | 135 nM | 5 µM | iASPP A620P peptide spanning the sequence around the mutation | 
2 | 743 nM | 5 µM | iASPP WT peptide spanning the sequence around A620 | 
3 |  |  | GLNPGGRPITPPRNSAKAKK (peptide, UniProt P62136 311-330, looked up, PP1α (protein phosphatase 1 catalytic subunit alpha), peptide AA311-330; also called PP1α peptide) [PP1α (AA311-330) peptide] | 10 °C
